According to the DeepSol protein solubility set:

Experiment: soluble on expression in E. coli; label from the status in PepcDB or PDB records

Sequence | soluble on expression in E. coli
MGSDKIHHHHHHMSIDYSQKIPNNVNLADDRALQRALEHWQPAFLDWWRDMGPEGSHNFDVYLRTAVSVDPSGWAHFEHVKMPDYRWGIFLQPADPARQIHFGEHKGEAAWQDVPGEHRANLRRIIVTQGDTEPASVEQQRHLGLTAPSLYDLRNLFQVNVEEGRHLWAMVYLLHRYFGRDGREEAEALLDRRSGDQDNPRILGAFNERTPDWLSFFMFTYFTDRDGKFQLCALAESGFDPLARTTRFMLTEEAHHMFVGESGVSRVIQRTCEVMRERDIRDPADVRAAGVIDLETIQRYLNFHYSVTIDLFGADQSSNAATFYSAGLKGRFEEGKRTDDHVLKSDVYRVLEVRDGQLGEREVPMLNALNEVLRDDYIRDSIGGVARWNKVIEKHGIPFKLTVPHKAFNRKIGTLSNVHVSPTGELLTEAQWQANERNWLATEEDRAYVASLMGRVTEPGKYANWIAPPAVGVNRQPMDFEYVRFN | not soluble
MSQYNPTTADFEALLMQSFQTNDLNEGSVVKGRVIAIEKDMAIIDAGLKVEGRIPLKEFGAKGKDGSLQIGDEVEVYIERIENAMGEAVLSREKARREESWIRLEEKFNAGARVDGVIFSQVKGGFTVDLDGAVAFLPRSQVDIRPIRDVSPLMHNSQSFEILKMDRRRGNIVVSRRTVLEESRAEQRSEIVQNLEENQIVEGVVKNITDYGAFVDLGGIDGLLHVTDMAWRRVNHPSEILTIGQTIKVQIIRINQDTHRISLGMKQLESDPWESISARYPVGKKITGAVTNITDYGGFVEIEPGIEGLIHVSEMSWTKKNVHPGKILSTSQEVEVVILEIDPSKRRISLGLKQTFENPWVAFANKFPVNSQIEGEVKNKTEFGLFIGLEGDVDGMVHLSDLDWNRPGEQVIDTYNKGDIVKAVVLDVDIEKERISLGIKQLSSDKVGEAAASGELRKGAVVTCEVTAVNDNGIDVKLTDHNLETTIRRTDLARDRDEQRPERFSIGQRVDARITAFDKKTRKLSVSIKALEIAEEKEAVAQYGSTDSGASLGDILGAALKKQEQDLEHHHHHH | soluble
MSLNERVMMINANGVPIALYNRGHLGSGHFGAVIKASLDDGTLYAAKVPYSQIVPNADATSAELEAEISSARAELVKTIRQELDVRDKLVAKGLTLTETAEQYGLPLCQMTLTLPENKATVVRRGSRLVVVSKEVMLLPLIDGSPSNSLVQSQPPFLFQRAVAREAIIALAKLHELGFAHGDVKLNNMMIDVHGFGHMLDMGSVRPVDSCVSEEDKYYLRLWAPELAKSQHTSQQTCLKRGALDVWALGLAIFEFVCFNRLPYSLSNLPSSLWSRVEHLSRLRLSDFSAKDCNESDPAVMGIVAQFLNPNPEERPELPKFVSSYTFFRQAPGVTSHLTRIPTTELSSHREGHHHHHH | soluble
MEALEEYTPTLLGEVAATLRGENELWLGLALISGKFNDLEPEQLAAAASALITETPRSDAWTDFKPSPVVLAALRPSNDLFGLLFCLKHPQPPLALWQAMTVADHLQRLNLWDLRRKLIKAQNQRAIAIPLWLEVDFMGLVEQWALGMEWENLCRQTSLDEGDLVRLFRRTVDLLWQIPQVPHLSPRLKRNARIAVQQMKRFPLLEHHHHHH | not soluble
MGSDKIHHHHHHMRNPIHKRLEKFESWKNITFMLCLCERMYPNFYLFCQMTEQMDKAKIYQNILNLVWEYLTVKNAKINFENQLEKLENIIPDVNNYEFFGVVPALDACEGLSELLHAIIAGETLEKAIKISQLSLQTVITLLETQQDKAFSEAELKQSEEIELELDVQWQIYRTLNAHEERDIRLILDLKNELRESRVSNIGIEIAQ | not soluble
DPTKNLRSVDLAVVNEDEGATRNGEFNRYGDKVVKGLLDKDYLAFKQVSADEAAKGLDNGTYLFTVTIPEKFSENVNTLLADQPTKPEIILSYNDFNGTNGSVLTGGLVPKIQQAVSASISESYATKLVNGVNKLGGGLERAADGSAKLEEGSGKLKDGLAKGVAGSQKLNDGSHQLAEGTAKLADGTGQLADGASRLAAGTAKLGNGAAQIDDGVGTLVNTLIPVLTTAQAAAPQLQQAADALRAVGMVAEADRIQDLATKFDANNPDNQVNKLNKLKNGTATLRYMLSDPSSEYYGGVLKLSDGVAKAHDGAVRLNDGAHRLADGTAQLANGTQQLYDGAGRLNEGANTLATKLDEGAKNAPKVPNAEASAKQISVPIVYKENNANPVQTVVDSNDPTAKKLNGGAS | not soluble
MGSDKIHHHHHHMSSHHETSENVVIKQADFIESVADALQYISYYHPKDFVDAMSEAYEREQSAAAKDAIAQILINSRMSAEGKRPLCQDTGIVTTFVKVGMGVKWDKTDMTIQQMVDEGVRRAYTNPDNPLRASIVADPAGSRKNTKDNTPSVVHIDMVPGNHVEVAIAAKGGGSENKAKMVMLNPSDDIAAWVEKTLPTMGAGWCPPGMLGIGIGGTAEKAAVLAKEALMESVDIHELMARGAQTTEEKLRLDIFERANNLGIGAQGLGGLTTVLDVKIKSAPTHAASKPVVMIPNCAATRHVHFHLDGTGPADLAPPSLSDWPEITREVGSDVRRVNLDTVTQADIEQWQSGETLLLSGKMLTGRDAAHKRIQSLIESGEGLPEGVDFTGKFIYYVGPVDPVGNEVVGPAGPTTATRMDKFTDLMLDKTGLMGMIGKAERGPATVESIKKHKAVYLMAVGGAAYLVSKAIKKSRVVAFADLGMEAIYEFDVQDMPVTVAVDSNGVNAHETGPAIWKVNIANANAKA | not soluble
MADPIDNNSGKYTVQRFPAVADPADPGYSRCTTWVQAVSHGFHQQRRDDEYLAKTLTAYQTDKRELTGVYVNGSVPDHSLGADVPVATYATMRKALNIGFGRQLEAHLVTAVTVRGTHRRNGILRGMITADLEAAKDDGLAMAALTASEASIYGRFGFGVATFERSIKVDTGPRFRLRGLPQGTVEVADPSVLLDVAPQVFERLQRLSPGSIDRQEYYRLVASGSIGHDGKPDTSVRCALHYDLSGSLDGYVSYRFKGWDHKPYTMEIVDLVAASNAAYLDLWRFLGSIDLIDEVTWVEAPVDDPLAWALEDPRCIEASEIRDMLWLRILDTPAALQARSFPVAGRLVLEVTDSLGLAGGTWVLESDGGAAAVVKEAAGETPDLSLDAADLGSIYLGAVSPVTLAAAGRIQEKTPGAALLAQQLFAVERSAHCLTHF | soluble
KVIAGLYQRAFQHLSEAVQAAEEEAQPPSWSCGPAAGVIDAYMTLADFCDQQLRKEEENASVIDSAELQAYPALVVEKMLKALKLNSNEARLKFPRLLQIIERYPEETLSLMTKEISSVPCWQFISWISHMVALLDKDQAVAVQHSVEEITDNYPQAIVYPFIISSESYSFKDTSTGHKNKEFVARIKSKLDQGGVIQDFINALDQLSNPELLFKDWSNDVRAELAKTPVNKKNIEKMYERMYAALGDPKAPGLGAFRRKFIQTFGKEFDKHFGKGGSKLLRMKLSDFNDITNMLLLKMNKDSKPPGNLKECSPWMSDFKVEFLRNELEIPGQYDGRGKPLPEYHVRIAGFDERVTVMASLRRPKRIIIRGHDEREHPFLVKGGEDLRQDQRVEQLFQVMNGILAQDSACSQRALQLRTYSVVPMTSSDPRAPPCEYKDWLTKMSGKHDVGAYMLMYKGANRTETVTSFRKRESKVPADLLKRAFVRMSTSPEAFLALRSHFASSHALICISHWILGIGDRHLNNFMVAMETGGVIGIDFGHAFGSATQFLPVPELMPFRLTRQFINLMLPMKETGLMYSIMVHALRAFRSDPGLLTNTMDVFVKEPSFDWKNFEQKMLKKGGSWIQEINVAEKNWYPRQKICYAKRKLAGANPAVITCDELLLGHEKAPAFRDYVAVARGSKDHNIRAQEPESGLSEETQVKCLMDQATDPNILGRTWEGWEPWM | soluble
AIAETEIHVPVGSPTIRKFQIFVDEHNVTEGAMKLIKELRPGWDPNLIRTKLFTDGTTNKLVGCYVEDCVEDVVLVRVYGNKTELIVDRDNELKSFQVLHANGCAPRLYCTFQNGICYEFMQGRALDTQDVRDPVLLRLIAREMARIHAIHAHNGCIPKPNLWIKMRKYFSLVATEFTEQASNIRIQQEVPSQEVLEQEMMWMKEHLSQLGSPVVLCHNDLLCKNIIHNAKEGHVRFIDYEYSSYNYQAFDIGNHFNEFAGMSEPDYNLYPSREMQLDWLQTYLQAYKLFTKKGEDVSERELETLYVQVNKFALASHFFWGFWALIQAKYSTIEFDFLGYAVLRFNQYFKTKPAVMALEIPK | soluble
MPERYTGSDGKTYLFKGWYKGNAKPSTLETTKTPSYAVTYDDNDDLHVVYEEAVMKTYTLPAREALFGYVDEQGNLINPAKFKLSATMGESDGATGEMTTFPTIDGIDMPASQLKKLAIPQKVYTRPDDGTIVTYGPQEVSVEIPKYYQTISISPTTAYTGDKTKYPVPNEVRRGIENPDNIVSSLVGTTAYNLTQKSATRYTARRSYWTWGPTKTLYSMSIYSGTAGGNYNLSTPDGTIYYYLENRRVTEHFVDESGAKITPPTGFTQGNQLVVDSENYVYTVAKALPKIYQAGEKTYIFQGWFKGKTKPATLKTTTTPSFTPTFNDEDDMTAVYQEAIPTAELTLTGAVDIIENGATMDYWEALLKNTGEAPLTTIKIKPTATWAAGIGAPNTIFVQGTGQNTKAFPVTKEQWTTGAGVSITLDQPLPAGGQLKMNLLGTAVTGNPGQVLTADVEVTGNFGSLTAKDTVRIKDLDQEITSPDGDGFISTPTFDFGKLAISGSKQQYGLKKAADYYGNGTRNPYLRLNTSQANWSLTAQLSQPKSATDSLPTTTRLLLGTAAAASFTDYNQPTETRTPLGKTSTVTLTADNTATAVVANQQFTGSDVYQLDFTFANIKLEVPANQGMAGQQYQAAVTWNLVTGP | not soluble
MIKDLVRPELQKLVPYVSHQVPYRIKLDANESPFELPESIRKKLADYFLKGPGLNIYPDNESVELRKTIAKYWNVDADEVIVGTGSNQLIQLIITVFVGKGEKVLYPWPTFSMYKINTLIAGGEPVAFPLDKEKDFVLDTDKFIEAVKTENAKVVFLCNPNNPTGGLVPLEHIEKIVKECKSSIIVVDEAYAEFCPQSVIPLVKKYENLVVLRTFSKAYLLAGARCGYSISGIEIANEINKVRPTYNVSSLTQLIAKMVFEEQEEMQKMIRYLIEQRGELEKSLKKIKDVCIYPSHANYILVKVPEAEMISKELQKRGILIRSFPNDPVLYDCIRITVGTKEQNDIFLEEFSDIINNF | not soluble
MGSDKIHHHHHHMQEKKTLTFVVPAYNMTEYLERCVESLIASKRNDDIEVLIVDDGSSDGTLEMAKTFEARNPGIVRAIHQENKGHGGAVNTGIAAASGMYVKVVDADDWVGPESLEQVLAVLRDEVGKDDPLDMLVTNYVYDKVGKRNKHVVNFRHAMEPGKRLTWDDLGHFGLTEYILMHALVYRTAVVRESKMQLPEHTFYVDFIYAYQPFPWVKSLQYLDTPFYHYFIGRDGQSVQTDVMIRRVDQLRLVNQCMVHATPERGTVPDGLYRYMIHFLAIESSVASVFMILSREPENYEKKKAMWADIEAYSPTIYKDVRKKAMSRALNLRGSAGRFVIRKGYFLAEHVVGFN | not soluble
MNSPLPDVALTEVSSALIALDWVGMQGVEVPLTLGEQGATHPVHAYADLQVDLTDPSVKGIHMSRLYRLLDGFAEHQVLTPETLSALLEAMVESHVDCHSSGARITLTFNLLCRRPALVTEGLSGWKSYPVKLEAVWRAGRLCLDVSADITYSSTCPCSAALSRQLLEEAFVARFGRQSFVDPMQVAAWLRENASYATPHSQRSVATVQVRVAEQATEMGLMALIDTVEQALGTPVQTAVKRADEQAFARLNGQNLMYVEDAARKIQQALEGRYPASSVSVRHFESLHPHDAAAQTSSYLS | not soluble
